Test results taken from patent publication US20240425612A1 (published 2024).

Tests used:
[1] = biological target: hFcγRIIIa-158V-streptavidin-His (human, UniProt P08637 17-208); assay: BLI
[2] = biological target: hFcγRIIIa-158F-streptavidin-His (human, UniProt P08637 17-208); assay: BLI
hFcγRIIIa-158F-streptavidin-His, sequence (P08637 17-208): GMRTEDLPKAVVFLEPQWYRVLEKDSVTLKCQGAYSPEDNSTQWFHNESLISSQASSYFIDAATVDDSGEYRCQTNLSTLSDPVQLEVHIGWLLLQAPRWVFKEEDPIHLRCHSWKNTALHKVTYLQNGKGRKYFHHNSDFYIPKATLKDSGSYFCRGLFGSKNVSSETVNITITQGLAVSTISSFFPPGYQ

hFcγRIIIa-158V-streptavidin-His, sequence (P08637 17-208 F176V): as the sequence (P08637 17-208) above, with F160V counted along it

Binder | Kd [1] [µM] | Kd [2] [µM]
Trastuzumab-MFc2 (antibody) Fc: DKTHTCPPCPAPELPGGPSVFLFPPKPKDTLMISRTPEITCVVVDVSHEDPEVKFNWYVDGVEVHNAKTKPREEQYNSTYRVVSVLTVLHRDWLNGKEYKCKVSNKALPAPEEKTISKAKGQPREPQVYTLPPSRDELTKNQVSLTCLVKGFYPSDIVVEWESNGQPENNYKTTPPVLDSDGSFFLYSKLTVDKSRWQQGNVFSCSVLHEALHNHYTQKSLSLSPGK | 0.0639 | 0.0568
Trastuzumab-MFc5 (antibody) Fc: DKTHTCPPCPAPELLGGPDVFLFPPKPMDTLMISRTPEVTCVVVDVSLEDPEVKFNWYVDGVEVHNAKTKPREEQYNSTYRVVSVLTVEHMDWLNGKEYKCKVSNKALPVPEEKTISKAKGQPREPQVYTLPPSRDELTKNQVSLTCLVKGFYPSDIAVEWESNGQPENNYKTTPPVLDSDGSFFLYSKLTVDKSRWQQGNVFSCSVLHEALHNHYTQKSLSLSPGK | 0.085 | 0.0756

Stronger by Kd [1], values ahead:

Kd [1] [µM] | Kd [2] [µM] | Binder
0.0324 | 0.0385 | Trastuzumab-MFc3 (antibody) Fc: DKTHTCPPCPAPELLGGPDVFLFPPKPKDTLMISRTPEVTCVVVDVSLEDPEVKFNWYVDGVEVHNAKTKPREEQYNSTYRVVSVLTVLHRDWLNGKEYKCKVSNKALPVPEEKTISKAKGQPREPQVYTLPPSRDELTKNQVSLTCLVKGFYPSDIAVEWESNGQPENNYKTTPPVLDSDGSFFLYSKLTVDKSRWQQGNVFSCSVLHEALHNHYTQKSLSLSPGK
0.0289 | 0.0299 | Trastuzumab-MFc6 (antibody) Fc: DKTHTCPPCPAPELPGGPDVFLFPPKPKDTLMISRTPEVTCVVVDVSHEYPEVKFNWYVDGVEVHNAKTKPREEQYNGTYRVVSVLTVLHRDWLNGKEYKCKVSNKALPAPEEKTISKAKGQPREPQVYTLPPSRGELTKNQVSLTCLVKGFYPSDIAVEWESNGQPENNYKTTPPVLDSDGSFFLYSKLTVDKSRWQQGNVFSCSVLHEALHNHYTQKSLSLSPGK
